From US20110171229A1

Experiments:
[1] = target: chondroitin sulfate proteoglycan 4 (CSPG4) (human) (UniProt Q6UVK1); assay: cell-based or functional assay
[2] = target: chondroitin sulfate proteoglycan 4 (CSPG4) (human) (UniProt Q6UVK1); assay: flow cytometry (FACS), whole cell population of MCF-7 cells
[3] = target: chondroitin sulfate proteoglycan 4 (CSPG4) (human) (UniProt Q6UVK1); assay: flow cytometry (FACS), whole cell population of T-47D cells
[4] = target: chondroitin sulfate proteoglycan 4 (CSPG4) (human) (UniProt Q6UVK1); assay: flow cytometry (FACS), whole cell population of HS578T cells
[5] = target: chondroitin sulfate proteoglycan 4 (CSPG4) (human) (UniProt Q6UVK1); assay: flow cytometry (FACS), whole cell population of SK-BR-3 cells
[6] = target: chondroitin sulfate proteoglycan 4 (CSPG4) (human) (UniProt Q6UVK1); assay: flow cytometry (FACS), whole cell population of SUM-149 cells
[7] = target: chondroitin sulfate proteoglycan 4 (CSPG4) (human) (UniProt Q6UVK1); assay: flow cytometry (FACS), whole cell population of MDA-MB-231 cells
[8] = target: chondroitin sulfate proteoglycan 4 (CSPG4) (human) (UniProt Q6UVK1); assay: flow cytometry (FACS), whole cell population of MDA-MB-435 cells
[9] = target: chondroitin sulfate proteoglycan 4 (CSPG4) (human) (UniProt Q6UVK1); assay: flow cytometry (FACS), CD44+/CD24-/lo putative CSC subpopulation of MCF-7 cells
[10] = target: chondroitin sulfate proteoglycan 4 (CSPG4) (human) (UniProt Q6UVK1); assay: flow cytometry (FACS), CD44+/CD24-/lo putative CSC subpopulation of HS578T cells
[11] = target: chondroitin sulfate proteoglycan 4 (CSPG4) (human) (UniProt Q6UVK1); assay: flow cytometry (FACS), CD44+/CD24-/lo putative CSC subpopulation of SUM-149 cells
[12] = target: chondroitin sulfate proteoglycan 4 (CSPG4) (human) (UniProt Q6UVK1); assay: flow cytometry (FACS), CD44+/CD24-/lo putative CSC subpopulation of MDA-MB-231 cells
[13] = target: chondroitin sulfate proteoglycan 4 (CSPG4) (human) (UniProt Q6UVK1); assay: flow cytometry (FACS), CD44+/CD24-/lo putative CSC subpopulation of MDA-MB-435 cells
[14] = target: chondroitin sulfate proteoglycan 4 (CSPG4) (human) (UniProt Q6UVK1); assay: flow cytometry (FACS), whole cell population of MCF-7 cells; control antibody
[15] = target: chondroitin sulfate proteoglycan 4 (CSPG4) (human) (UniProt Q6UVK1); assay: flow cytometry (FACS), whole cell population of T-47D cells; control antibody
[16] = target: chondroitin sulfate proteoglycan 4 (CSPG4) (human) (UniProt Q6UVK1); assay: flow cytometry (FACS), whole cell population of HS578T cells; control antibody
[17] = target: chondroitin sulfate proteoglycan 4 (CSPG4) (human) (UniProt Q6UVK1); assay: flow cytometry (FACS), whole cell population of SK-BR-3 cells; control antibody
[18] = target: chondroitin sulfate proteoglycan 4 (CSPG4) (human) (UniProt Q6UVK1); assay: flow cytometry (FACS), whole cell population of SUM-149 cells; control antibody
[19] = target: chondroitin sulfate proteoglycan 4 (CSPG4) (human) (UniProt Q6UVK1); assay: flow cytometry (FACS), whole cell population of MDA-MB-231 cells; control antibody
[20] = target: chondroitin sulfate proteoglycan 4 (CSPG4) (human) (UniProt Q6UVK1); assay: flow cytometry (FACS), whole cell population of MDA-MB-435 cells; control antibody
[21] = target: chondroitin sulfate proteoglycan 4 (CSPG4) (human) (UniProt Q6UVK1); assay: flow cytometry (FACS), CD44+/CD24-/lo putative CSC subpopulation of MCF-7 cells; control antibody
[22] = target: chondroitin sulfate proteoglycan 4 (CSPG4) (human) (UniProt Q6UVK1); assay: flow cytometry (FACS), CD44+/CD24-/lo putative CSC subpopulation of HS578T cells; control antibody
[23] = target: chondroitin sulfate proteoglycan 4 (CSPG4) (human) (UniProt Q6UVK1); assay: flow cytometry (FACS), CD44+/CD24-/lo putative CSC subpopulation of SUM-149 cells; control antibody
[24] = target: chondroitin sulfate proteoglycan 4 (CSPG4) (human) (UniProt Q6UVK1); assay: flow cytometry (FACS), CD44+/CD24-/lo putative CSC subpopulation of MDA-MB-231 cells; control antibody
[25] = target: chondroitin sulfate proteoglycan 4 (CSPG4) (human) (UniProt Q6UVK1); assay: flow cytometry (FACS), CD44+/CD24-/lo putative CSC subpopulation of MDA-MB-435 cells; control antibody

Chain of UniProt Q6UVK1 (Q6UVK1 30-2322): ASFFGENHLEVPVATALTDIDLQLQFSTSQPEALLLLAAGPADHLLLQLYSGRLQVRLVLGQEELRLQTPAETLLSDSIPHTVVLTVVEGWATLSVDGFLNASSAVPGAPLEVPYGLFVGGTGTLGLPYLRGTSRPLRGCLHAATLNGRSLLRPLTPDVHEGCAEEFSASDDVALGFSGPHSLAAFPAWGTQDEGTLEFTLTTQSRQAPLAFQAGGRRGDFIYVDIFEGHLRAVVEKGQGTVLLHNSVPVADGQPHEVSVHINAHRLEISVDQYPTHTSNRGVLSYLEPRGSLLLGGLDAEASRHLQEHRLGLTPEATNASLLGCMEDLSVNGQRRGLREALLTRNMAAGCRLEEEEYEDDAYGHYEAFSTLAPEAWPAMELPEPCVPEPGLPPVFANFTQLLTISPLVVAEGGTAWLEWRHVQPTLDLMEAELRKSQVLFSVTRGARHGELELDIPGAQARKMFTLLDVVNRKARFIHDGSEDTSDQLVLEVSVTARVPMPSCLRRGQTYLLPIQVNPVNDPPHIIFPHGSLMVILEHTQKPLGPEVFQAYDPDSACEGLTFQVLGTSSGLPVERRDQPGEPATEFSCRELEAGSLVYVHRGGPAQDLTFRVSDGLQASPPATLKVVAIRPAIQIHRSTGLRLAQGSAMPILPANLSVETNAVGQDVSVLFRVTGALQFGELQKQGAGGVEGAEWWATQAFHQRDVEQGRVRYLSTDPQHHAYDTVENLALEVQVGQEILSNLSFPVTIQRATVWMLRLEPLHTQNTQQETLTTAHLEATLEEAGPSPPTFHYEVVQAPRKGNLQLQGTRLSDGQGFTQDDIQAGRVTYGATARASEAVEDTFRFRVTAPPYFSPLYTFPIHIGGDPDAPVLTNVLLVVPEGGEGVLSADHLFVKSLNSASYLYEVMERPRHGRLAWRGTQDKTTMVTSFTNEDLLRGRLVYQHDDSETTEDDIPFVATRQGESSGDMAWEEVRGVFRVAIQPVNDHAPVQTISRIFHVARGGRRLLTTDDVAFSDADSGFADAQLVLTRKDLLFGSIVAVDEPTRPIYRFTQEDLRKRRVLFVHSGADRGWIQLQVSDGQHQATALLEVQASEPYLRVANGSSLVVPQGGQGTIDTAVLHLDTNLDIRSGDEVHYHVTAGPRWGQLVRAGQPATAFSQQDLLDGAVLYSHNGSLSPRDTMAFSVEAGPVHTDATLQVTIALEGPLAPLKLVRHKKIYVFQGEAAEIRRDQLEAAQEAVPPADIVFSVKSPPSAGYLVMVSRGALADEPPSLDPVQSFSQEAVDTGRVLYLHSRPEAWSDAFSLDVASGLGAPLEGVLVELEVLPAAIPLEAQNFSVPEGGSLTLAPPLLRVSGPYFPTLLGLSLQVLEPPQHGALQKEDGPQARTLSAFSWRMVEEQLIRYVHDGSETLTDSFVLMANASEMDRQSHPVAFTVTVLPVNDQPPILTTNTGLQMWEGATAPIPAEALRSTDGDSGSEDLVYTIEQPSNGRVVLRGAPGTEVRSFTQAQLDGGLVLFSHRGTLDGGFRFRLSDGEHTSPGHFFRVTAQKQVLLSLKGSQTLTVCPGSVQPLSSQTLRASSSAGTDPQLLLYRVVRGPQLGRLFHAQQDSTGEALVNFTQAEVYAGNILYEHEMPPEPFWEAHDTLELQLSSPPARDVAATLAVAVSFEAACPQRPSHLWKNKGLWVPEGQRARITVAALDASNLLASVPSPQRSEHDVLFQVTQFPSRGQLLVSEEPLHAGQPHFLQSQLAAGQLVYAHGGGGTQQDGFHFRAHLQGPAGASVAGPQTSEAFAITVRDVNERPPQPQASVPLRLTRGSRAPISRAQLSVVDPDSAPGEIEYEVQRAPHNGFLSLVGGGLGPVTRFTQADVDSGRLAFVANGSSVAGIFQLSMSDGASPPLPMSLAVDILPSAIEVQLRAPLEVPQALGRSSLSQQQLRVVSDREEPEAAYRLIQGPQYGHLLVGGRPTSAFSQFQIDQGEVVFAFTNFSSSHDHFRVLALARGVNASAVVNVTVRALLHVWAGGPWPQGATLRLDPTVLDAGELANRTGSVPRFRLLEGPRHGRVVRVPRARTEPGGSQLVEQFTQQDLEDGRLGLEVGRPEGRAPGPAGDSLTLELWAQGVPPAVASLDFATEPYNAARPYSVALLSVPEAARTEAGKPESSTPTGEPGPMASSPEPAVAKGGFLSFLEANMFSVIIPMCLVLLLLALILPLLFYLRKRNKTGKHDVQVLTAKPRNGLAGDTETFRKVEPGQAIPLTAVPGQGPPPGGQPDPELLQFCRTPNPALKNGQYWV

## CSPG4-specific mAb 225.28 (antibody)
[1]
  inhibition of adhesion of cells to fibronectin: 45%
  inhibition of cell growth in a 3D matrix setting (TNBC cells): 70%
  inhibition of motility towards fibronectin in a Boyden chamber assay: 56%
[2]
  % of stained cells: 8.5%
  MFI: 12
[3]
  % of stained cells: 13%
  MFI: 3.8
[4]
  % of stained cells: 66.7%
  MFI: 379
[5]
  % of stained cells: 1.5%
  MFI: 4.6
[6]
  % of stained cells: 93.4%
  MFI: 193
[7]
  % of stained cells: 83.8%
  MFI: 53.8
[8]
  % of stained cells: 96.1%
  MFI: 714
[9]
  % of stained cells: 11.4%
  MFI: 9.8
[10]
  % of stained cells: 71.7%
  MFI: 196
[11]
  % of stained cells: 95.7%
  MFI: 179
[12]
  % of stained cells: 85.7%
  MFI: 53.8
[13]
  % of stained cells: 99.7%
  MFI: 694

## CSPG4-specific mAb TP41.2 (antibody)
[2]
  % of stained cells: 13.8%
  MFI: 11.9
[3]
  % of stained cells: 0.3%
  MFI: 2.7
[4]
  % of stained cells: 52.6%
  MFI: 34.2
[5]
  % of stained cells: 0.1%
  MFI: 2.1
[6]
  % of stained cells: 0.9%
  MFI: 2.8
[7]
  % of stained cells: 88.4%
  MFI: 142
[8]
  % of stained cells: 86.8%
  MFI: 63.3
[9]
  % of stained cells: 2.5%
  MFI: 2.5
[10]
  % of stained cells: 17.6%
  MFI: 14.5
[11]
  % of stained cells: 1.4%
  MFI: 2.7
[12]
  % of stained cells: 12%
  MFI: 6.1
[13]
  % of stained cells: 91.9%
  MFI: 40.4

## CSPG4-specific mAb 763.74 (antibody)
[2]
  % of stained cells: 17.4%
  MFI: 13.8
[3]
  % of stained cells: 0.5%
  MFI: 3.4
[4]
  % of stained cells: 61.4%
  MFI: 39.2
[5]
  % of stained cells: 0%
  MFI: 2
[6]
  % of stained cells: 1.3%
  MFI: 2.8
[7]
  % of stained cells: 91.2%
  MFI: 154
[8]
  % of stained cells: 93.5%
  MFI: 79.2
[9]
  % of stained cells: 2.6%
  MFI: 2.4
[10]
  % of stained cells: 33.9%
  MFI: 17.6
[11]
  % of stained cells: 3%
  MFI: 3.1
[12]
  % of stained cells: 16.6%
  MFI: 6.9
[13]
  % of stained cells: 96.4%
  MFI: 50.5

## CSPG4-specific mAb TP61.5 (antibody)
[2]
  % of stained cells: 3.5%
  MFI: 7.8
[3]
  % of stained cells: 0%
  MFI: 2.3
[4]
  % of stained cells: 92.3%
  MFI: 109
[5]
  % of stained cells: 0.1%
  MFI: 2.4
[6]
  % of stained cells: 51.1%
  MFI: 19.6
[7]
  % of stained cells: 68.3%
  MFI: 86.3
[8]
  % of stained cells: 82.4%
  MFI: 61.1
[9]
  % of stained cells: 9.9%
  MFI: 3.2
[10]
  % of stained cells: 72.4%
  MFI: 34.4
[11]
  % of stained cells: 51.2%
  MFI: 10.5
[12]
  % of stained cells: 75.6%
  MFI: 33.6
[13]
  % of stained cells: 98%
  MFI: 93

## Isotype control (antibody)
[14]
  % of stained cells: 0.7%
  MFI: 6.2
[15]
  % of stained cells: 6.2%
  MFI: 10.4
[16]
  % of stained cells: 0.4%
  MFI: 13
[17]
  MFI: 4.3
[18]
  % of stained cells: 2%
  MFI: 2.7
[19]
  % of stained cells: 0.3%
  MFI: 9.8
[20]
  % of stained cells: 0.7%
  MFI: 9.1
[21]
  % of stained cells: 0.6%
  MFI: 1.8
[22]
  % of stained cells: 0.5%
  MFI: 10
[23]
  % of stained cells: 0.5%
[24]
  % of stained cells: 0.4%
  MFI: 3.7
[25]
  % of stained cells: 0.5%
  MFI: 3
